From patent publication US20240376151A1, “STAPLED PEPTIDES AND METHODS THEREOF” (FOG PHARMACEUTICALS, INC., priority 2022, published 2024)
Ends that are not written are not given here.

Biological target: T1, RNF31 PUB domain (Homo sapiens, UniProt Q96EP0)
T1 construct: MBP-TEV (N, cleaved yes); made in house; host or cells: E. coli BL21 (DE3) pLysS
T1 sequence (Q96EP0 1-179): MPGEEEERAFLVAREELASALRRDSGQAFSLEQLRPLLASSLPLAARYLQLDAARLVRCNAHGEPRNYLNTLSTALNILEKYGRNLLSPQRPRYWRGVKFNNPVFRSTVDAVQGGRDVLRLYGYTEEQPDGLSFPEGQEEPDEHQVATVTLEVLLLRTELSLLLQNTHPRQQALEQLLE
Test: Phage Library Screening with NGS, RNF31 PUB domain
Type: binding
Details: for Phage library screen NGS readout, Target Concentration 10 / Phage library screen NGS readout, Target Concentration 30 / Phage library screen NGS readout, Target Concentration 100 / Phage library screen NGS readout, Target Concentration 300 / Phage library screen NGS readout, Target Concentration 1000: RNF31 PUB domain clusters C41-C45; for Phage library screen NGS readout, BLANK: clusters C41-C45

[1] = target concentration 1000, first column
[2] = target concentration 1000, second column

Sequence	Phage library screen NGS readout, Target Concentration 10	Phage library screen NGS readout, Target Concentration 30	Phage library screen NGS readout, Target Concentration 100	Phage library screen NGS readout, Target Concentration 300	Phage library screen NGS readout, Target Concentration 1000 [1]	Phage library screen NGS readout, Target Concentration 1000 [2]	Phage library screen NGS readout, BLANK (column 1 of 5)	Phage library screen NGS readout, BLANK (column 2 of 5)	Phage library screen NGS readout, BLANK (column 3 of 5)	Phage library screen NGS readout, BLANK (column 4 of 5)	Phage library screen NGS readout, BLANK (column 5 of 5)
DPAWLDCIYAAYDCVTD	1	1	1	3	6	4	1	1	1	0	2
DPAWQECVIAALVCDTY	0	0	0	3	13	8	0	0	1	4	0
DPAFAQCEVAAMVCTTY	0	0	0	2	5	6	0	0	0	0	0
DPAYDWCLYAAYQCDQN	0	0	0	6	13	40	0	0	0	0	0
DPAWWNCLYAANTCVED	0	1	0	5	7	5	1	2	1	1	1
DPANFTCRVAADVCSTY	0	0	3	3	26	12	0	0	1	0	0
DPAQYQCWNAAMSCSYS	1	1	3	3	7	4	1	0	0	3	2
DPAQEECFEAAVFCSYY	2	0	2	7	36	20.49	0	0	0	0	1
DPAWMQCMYAAWDCNIE	0	0	0	4	6	5	0	0	0	0	0

The next lines start with the values.

Phage library screen NGS readout, Target Concentration 10	Phage library screen NGS readout, Target Concentration 30	Phage library screen NGS readout, Target Concentration 100	Phage library screen NGS readout, Target Concentration 300	Phage library screen NGS readout, Target Concentration 1000 [1]	Phage library screen NGS readout, Target Concentration 1000 [2]	Phage library screen NGS readout, BLANK (column 1 of 5)	Phage library screen NGS readout, BLANK (column 2 of 5)	Phage library screen NGS readout, BLANK (column 3 of 5)	Phage library screen NGS readout, BLANK (column 4 of 5)	Phage library screen NGS readout, BLANK (column 5 of 5)	Sequence
0	0	1	1	11	1	0	0	0	0	0	DPADWDCMYAAQDCFED
0	0	0	3	6	9	1	0	0	0	1	DPAFWACLYAAEECVVD
1	1	1	5	6	8	3	2	0	1	0	DPAQHECIYAAWDCDML
1	1	0	2	8	7	0	0	0	0	0	DPAAWECHIAAFVCSTY
0	0	1	5	48	38	1	0	0	1	0	DPAYDYCLYAAYDCTQT
0	1	0	2	6	6	0	0	0	0	4	DPATWWCLYAAEDCVNI
1	0	0	3	9	5	0	0	0	2	0	DPAWWNCLYAAYECNHA
2	2	0	9	29	24	1	1	1	0	0	DPAWMDCLYAAYDCQHM
0	0	0	1	6	6	0	0	0	0	0	DPAMIDCFLAAQVCATY (not fully specified; cysteine pairing not given here)
